According to the PETadex activity labels:

B1: unnamed (protein)
chain: MATFNQLMHWSLAGLAVSMLGACGGGGGGGTPDAPPVMTPAPLPAPIPAPLPPLPPPPPAPTACTTSCRGADPTPASVEADAGPYAVATLALTQANGAAAMVYYPTGSSESFGAVVTMPGWDGDQSNLQWLGPRLASNGFVVINVDTPARRGDFPDARARFGVQALDQVVTLSATPGNALSGKVDAARLGMVGHSMGGGAALVAARDHPGLFKAVVPLSPWYDQATRDFPSATPALVFVCTGDMTASVAGYALPVYDSLRSHKAYVEAAHVPVPGGDAHNCVRTGVANRPKLGKTVVSWLKLWLDGDPRYLPFVCGAQNPGTDAGFTNVWRSSCPF
B2: unnamed (protein)
chain: MRKLLRRGPMRLLAVGLVIAVGVLATACDWRGPEPSDQLLTGTGPFGIGTISVPASAGFGGGTIYYPTGNPGPFAVVSFSPGFLEQSGAFPGWGNKLASHGFVAILFNTSNTGEFPDARSTEQRQALTYVINQGQNPSSPIFGLVDGNRTAVMGHSMGGGASLISAQADHTIDAVIPVAPWNGGTNFSGITSPTLVVACQSDSTAPVNSHASPFYNSIPSTTKKEYLSVAGGDHFCANDPSLVGGGNIGKYAVAFLKRWLDTDTRYDPWTCGASKATAGSVFNEVRSTCPW
B3: unnamed (protein)
chain: MRSSHVRIKKDKRATRMRSAPVSAREPTSARRVTHAQRADPLDRQRRQPMRFQQHASRLIKASILGSLVVLSAAATAQTNPFARGPNPTASALEATSGPFTVRNFTVSRPSGYGAGTVYYPTNAGGTVGAIAIVPGYTARQSSINWWGPRLASHGFVVITIDTNSTLDQPGSRSSQQMAALRQVVSLNGTSSSPIYNKVDTSRLGVMGWSMGGGGSLISAANNPSLKAAAPQAPWNTSTNFSSLTVPTLIFACENDSIAATRSHASPMYNSMRNNPRQYLEITRGSHSCANSGNSDRGLLGKKGVAWMKRYMDNDTRYTTFACQNPNTSRVSDFRVANCS
B4: unnamed (protein)
chain: MKRTLSLRRLWQAMAACASLCIAAAASAQVGPDPTSAGLEASAGPFTVSTSSVSSYVRGFGGGTIYYPSAAGQYGVVAISPGFTATQSSVAWLGRRLASHGLVVITINTNSVFDMPASRATQLMAALNHVVSGASSTIRSRVDSTRLAVSGHSMGGGGALIAAQNNPTLRASLPLTPWNNATNFDTVRVPTLIFGADGDTVASASSHARPFYASLPATTLKAYAELNNANHSTPNSTNTPIGRYSVAWMKRFVDADARYSPFLCGEPHRTYATPAVFDRYNQNCPY
B5: unnamed (protein)
chain: MRALLSPTRRRLMTRVSTLSTLPLRRVLCSLALSAVAAAASAQTAPPTSASLNATAGPLAVSSVAISGATGFGGGTIYYPQAAGSYGVIAISPGYGARGSSLAWLARRLATHGFVVAAINTTSTMDSPPSRGPQLMAALDHVVNKADANVRSRADGSRMAVMGHSAGGGGALVAARDNPTLKAAVALTPGSFGNFYSGVRVPTIIFGADGDTITPVTSQARPAYNSIPVTTPKAYGELNNATHLTPVSTNTPIGRYSVAWAKRFVDGDTRYS
B6: unnamed (protein)
chain: MHETNTRVRAGRACGCARAVRRVERGRVGRGRCLMRYRAFAWWWVCACLLLACGDTSGGNADETGPVTGQQPAAGASGQSASGTGGGTPAMPMSGGTSAGSAGRAGSAGMPPPAAGMGSMAGEGGTAGTDADAGASGVGGSAGGTSGVGGSAGSAGEGPDPEGPDPTTESASRAGPLNVESIPWTEFRNGPDFAGGTIWYPTDGEPPYPFVAIVPGFTAYESSIRSWGPFLASHNIVAITIDTNTTADQPPTRAAALLDALESVAAENSRSGSPLMDKLDESRQALMGWSMGGGGTLIAANRTPSLKAAISLCGWNPLGSYSMMTVPSLMFASLGDPLAGGQSQGFYRSIPDTTPKMLIEAGVADHFVANNPAYLNGLIGRYGLSWLKVFMVGDERYRQFLLEMPQGTTDYASNVE
B7: unnamed (protein)
chain: MPDADTGRRANRCGAGNPAEGNPVITTRKRLVRRLAALVLVAFALVACDIKGPDPTDAILTASSGPFGVGTLAVPTSAGFGGGTIYYPTGVDGPFAVISVAPGFTETASAVAEWGPRLASHGFVTIVFNTSNTFENPSTRSTEQRQALTYTINQSNTAGSPIAGLVDGNRRGVAGHSMGGGGTLISEQADSTIRAGVPLAPWNTSPDFPDITVPTLFLACQNDSIAPVANHASPMYESIPATTHKSFVSFAGGDHFCANSPTGGSSNAGKFAVAFFKKFLDGDTRYDPWVCGASKPAVNSAINEVRSTCPF

Substrate: BHET
Conditions: 120 h

| Protein | plate clearing |
| --- | --- |
| B1 | not clears the plate |
| B2 | not clears the plate |
| B3 | not clears the plate |
| B4 | not clears the plate |
| B5 | not clears the plate |
| B6 | not clears the plate |
| B7 | not clears the plate |
